From US20140037624A1 come the findings set out here.

Experiment [1] concerns the target T1, human FGFR4-Fc chimeric protein (human) (UniProt P22455).
T1 sequence: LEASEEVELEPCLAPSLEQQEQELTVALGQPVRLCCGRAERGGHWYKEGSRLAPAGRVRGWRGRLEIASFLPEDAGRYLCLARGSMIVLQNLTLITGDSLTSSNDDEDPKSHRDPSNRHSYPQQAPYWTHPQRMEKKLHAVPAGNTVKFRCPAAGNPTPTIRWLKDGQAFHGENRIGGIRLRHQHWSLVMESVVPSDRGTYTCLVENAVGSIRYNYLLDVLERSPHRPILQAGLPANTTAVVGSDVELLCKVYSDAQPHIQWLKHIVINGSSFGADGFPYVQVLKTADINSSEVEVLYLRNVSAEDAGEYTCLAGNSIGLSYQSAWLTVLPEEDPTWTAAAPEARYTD
Put plainly: solid phase binding assay, LD1 on immobilized hFGFR4-Fc, OD 450 nm.

Experiment [2] deals with human FGFR4 at the cell surface (stably transfected HEK293 and L6 cells; endogenous on human liver cancer cell lines) (human) (UniProt P22455). Nature of the experiment: cell-based or functional assay.
Experiment [3] deals with T2, mouse FGFR4-Fc chimeric protein (mouse) (UniProt Q03142).
T2 sequence (looked up): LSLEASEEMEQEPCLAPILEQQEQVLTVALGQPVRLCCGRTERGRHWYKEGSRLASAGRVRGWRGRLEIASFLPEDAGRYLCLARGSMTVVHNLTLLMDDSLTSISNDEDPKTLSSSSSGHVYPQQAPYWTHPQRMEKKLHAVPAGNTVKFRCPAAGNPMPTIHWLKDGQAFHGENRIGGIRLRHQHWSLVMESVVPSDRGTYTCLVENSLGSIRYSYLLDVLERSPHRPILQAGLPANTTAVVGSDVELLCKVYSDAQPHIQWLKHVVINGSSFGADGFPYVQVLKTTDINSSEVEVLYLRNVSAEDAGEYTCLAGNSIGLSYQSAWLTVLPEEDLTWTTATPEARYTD
Put plainly: solid phase binding assay, LD1 on immobilized mFGFR4-Fc, OD 450 nm.

For experiment [4], the target named is human FGFR4 at the cell surface (stably transfected HEK293 and L6 cells; endogenous on human liver cancer cell lines) (human) (UniProt P22455). Nature of the experiment: flow cytometry on HEK293 cells stably transfected with hFGFR4, RFU.

B1: chimeric LD1 (murine LD1 variable domains with human kappa and human IgG1 constant domains) (antibody, V domains shown)
VH: EVQLQQPGAVLVRPGTSVKLSCKASGYTFTNHWMNWVKQRPGQGLEWIGMIHPSDSETTLDQKFKDKATLTVDKSSSTAYMQLNRPTSEDSAVYYCTRGDISLFDYWGQGTTVTVSS
VL: DIQMTQTTSSLSASLGDRVTITCRTSQDISNFLNWYQQKPDGTFKILISYTSRLHSGVPSRFSGSGSGTDYSLTISTLEQEDFATYFCQQGNALPYTFGGGTKLEIE
By EC50 (read off the curve) is commonly meant the concentration needed to bring the measured effect to its halfway point. The low end stands for a more potent agent, the high end for a less potent agent. On to B1, for which the EC50 (read off the curve) in experiment [1] is 0.04 µg/mL. Also, in experiment [2], the CYP7α1 expression in HEP3B cells with added FGF19 was 67%, the CYP7α1 expression in HEP3B cells without added FGF19 worked out at 2 fold, the CYP7α1 expression in HUH7 cells in the absence of FGF19 was 3.5 fold and the CYP7α1 expression in HUH7 cells in the presence of FGF19 is 2.9 fold. For the same molecule, in experiment [2], the decrease of basal c-Fos expression in JHH5, JHH7 and HUH7 cell lines came to 50%; the decrease of basal c-Fos expression in the PLC/PRF/5 cell line was found to be 75%; the maximum inhibition of colony formation, HUH7 cells worked out at 50%; the maximum inhibition of colony formation, JHH5 cells amounted to 26%. Also, the maximum inhibition of colony formation, PLC/PRF/5 cells in experiment [2] amounted to 82%. In experiment [3], this molecule returned an EC50 (read off the curve) of 0.04 µg/mL. Moreover, the EC50 (read off the curve) in experiment [4] stood at 0.5 µg/mL.
